Measured values: US20190201542A1 (AbbVie / Abbott, published 2019)
Where a chain is given by its changes, count along the chain named.

Target: T1, human DLL3 (human, UniProt Q9NYJ7 27-492, limits assumed)
T1 construct: also called hDLL3; DLL3 protein
T1 sequence: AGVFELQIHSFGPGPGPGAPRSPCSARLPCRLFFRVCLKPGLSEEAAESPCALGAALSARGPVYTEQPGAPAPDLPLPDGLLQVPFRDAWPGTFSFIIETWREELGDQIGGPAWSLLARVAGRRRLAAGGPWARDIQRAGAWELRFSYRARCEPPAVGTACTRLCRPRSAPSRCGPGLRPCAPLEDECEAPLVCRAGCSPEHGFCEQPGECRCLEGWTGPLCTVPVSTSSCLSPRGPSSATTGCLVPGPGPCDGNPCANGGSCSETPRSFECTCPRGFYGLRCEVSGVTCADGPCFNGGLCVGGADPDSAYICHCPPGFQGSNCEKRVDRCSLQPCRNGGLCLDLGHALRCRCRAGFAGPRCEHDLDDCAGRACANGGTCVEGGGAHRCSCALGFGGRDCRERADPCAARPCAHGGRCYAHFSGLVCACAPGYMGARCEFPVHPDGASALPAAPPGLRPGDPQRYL
Assay: screen on immobilized hDLL3 or h293-hDLL3 cells
In short: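 After 10 days in culture, supernatants of single-cell hybridomas from human DLL3-immunized mice were tested on cells and by solid-phase ELISA. A flow-cytometry signal above the control level counted as binding. The ELISA used DLL3-His coated at 0.5 μg/ml, HRP anti-mouse IgG and TMB, with reading at OD 450.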

B1: SC16.58 (antibody, V domains shown)
VH: DVQLVESGGGLVQPGGSRKLSCAASGFTFSSFGMHWVRQAPEKGLEWVAYISSGSSNIYYADTVKGRFTISRDNPKNTLFLQMTSLRSEDTAMYYCARGYYGNYDAMDYWGQGTSVTVSS
VL: DIQMTQSPASLSSSVGETVTITCRASENIYSYLAWYQQKQGKSPQLLVYNAKTLAEGVPSRFSGSGSGTQFSLKINSLQPEDFGTYYCQHHYDSPLTFGAGTKLELR
notes: murine mAb
binding result: binds

B2: SC16.61 (antibody, V domains shown)
VH: EVLLQRSGPDLVKPGASVTIPCKASGYTFTDYNMDWVKQSHGKSLEWIGNINTYNGGTIYNQKFKGKATLTVDKPSSTAYMELRSLTSEDTAVYYCARRLRYGGHYFDYWGQGTALTVSS
VL: DIVMTQSTSSLAMSVGQKVTMSCKSSQSLLNSSNQKNYLAWYQQEPGQSPKLLVSFASTRESGVPDRFTGSGSGTDFTLTISGVQAEDLAVYYCQQHYSIPLTFGAGTKLELK
notes: murine mAb
binding result: binds

B3: SC16.62 (antibody, V domains shown)
VH: EVMLVESGGDLVKPGGSLKLSCAASGFTFSSYAMSWVRQTPEKRLEWVAYISGGGDHIYYPDSVRGRFTISRDNAKDTLYLQMSSLRSEDTALYDCARVRDWYFDVWGAGTTVTVSS
VL: DIKMTQSPSSMYASLGERVTITCKASQDINSFLSWFQRKPGKSPKTLIYRANRLVDGVPSRFTGSGSGQEFSLTISSLEYEDLGIYYCLQYDEFPYTFGGGTKLEIK
notes: murine mAb
binding result: binds

B4: SC16.63 (antibody, V domains shown)
VH: QVQLQQSGTELLRPGASVKISCKATGYTFSSYWMEWVKQRPGHGLEWIGEILPGSGTTQYNEKFKGKATFTADTSSNTAYMHLSSLTSEDSAVYYCARGTNSLWGQGTLVTVSA
VL: QIVLTQSPAIMSASPGEKVTMTCSASSSVSYMYWYQQKSGTSPKRWIYDTSKLASGVPARFSGSGSGTSYSLTISSMEAEDAATYYCQQWSSNPYTFGGGTKLEIK
notes: murine mAb
binding result: binds

B5: SC16.65 (antibody, V domains shown)
VH: QVTLKESGPGILQPSQTLSLTCSFSGFSLSTSGMGVGWIRQPSGKGLEWLALIWWDDVKRYNPALKSRLTISKDASSSQVFLKIASVDTADTATYYCARIASYDYDVVYAMDYWGQGTSVSVSS
VL: QIVLTQSPALMSASPGEKVTMTCSVTSSVSYMYWYQQKPRSSPKPWIYLTSNLASGVPARFSGSGSGTSYSLTISSVEAEDAATYYCQQWRNNPFTFGSGTKVEIK
notes: murine mAb
binding result: binds

B6: SC16.7 (antibody, V domains shown)
VH: EVQLQQSGPELVKPGASVKISCKASGYSFTGYKMHWVKQSHVKSLEWIGRINPYNGATSYNQNFKDKATLTVDKSSSTAYMDLHSLTSEDSAVYFCARGDYRYDWFAYWGQGTLVTVSA
VL: NIMMTQSPSSLAVSAGEKVTMSCKSSQSVLYSSNQKNYLAWYQQKPGQSPKLLIYWASTRESGVPDRFTGSGSGTDFTLTISTVQVEDLAVYYCHQYLSSWTFGGGTKLEIK
notes: murine mAb
binding result: binds

B7: SC16.67 (antibody, V domains shown)
VH: EVQLVETGGGLVQPKGSLKLSCAVSAFTFTTYAMNWVRQAPGKGLEWVARIRNKSNNYATYYADSVKDRFTISRDDSQSMLYLQMNNLKIEDTAMYYCVFYYDYVYWGQGTLVTVSA
VL: QAVVTQESALTTSPGETVTLTCRSSTGAVTTSNYANWIQEKPDHLFTGLIGGTNNRAPGVPARFSGSLIGDKAALTITGAQTEDEAIYFCGLWYSNHLVFGGGTKLTVL
notes: murine mAb
binding result: binds

B8: SC16.72 (antibody, V domains shown)
VH: EVQLQQSGPELVKPGASVKMSCKASGYTFTSYVMHWVKQKPGQGLEWIGYINPYNDGTKYNEKFKGKATLTSDKSSSTAYMELSSLTSEDSAVYYCARLRSRAMDYWGQGTSVTVSS
VL: ENVLTQSPAIMSASLGEKVTMSCRASSSVNYMSWYQQKSDASPKLWIYYTSNLAPGVPARFSGSGSGNSYSLTISSMEGEDAATYYCQQFTSSPYTFGGGTKLEIK
notes: murine mAb
binding result: binds

B9: SC16.73 (antibody, V domains shown)
VH: QVQLQQSGAELMKPGASVKISCKANGYTFSSYWIEWLRQRPGHGLEWIGEILPGSDNSNYNEKFKGKATFTADTSSNTAYMQLSSLTSEESAVYYCTRGLRRDGSYYYVMEHWGQGTSVTVSS
VL: DIQMTQSPSSLSASLGERVSLTCRASQDIGYSLNWLQQEPDGTIKRLIYATSSLDSGVPKRFSGSRSGSDYSLTISSLESEDFVDYYCLQYASSPWTFGGGTKLEIK
notes: murine mAb
binding result: binds

B10: SC16.78 (antibody, V domains shown)
VH: EVKLVESGGGLVKPGGSLKLSCAASGFTFGRYVMSWVRQTPEKKLEWVASITSGGTTYYPDSVKGRFTISRDNARNILYLQMSSLRSEDTAMYYCARVYYHYDDIFAYWGQGTLVTVSA
VL: B3 VL with F32Y, R38Q, K42R, T63S, E70D, F71Y, E79D, L83M, Y96F, G100S
notes: murine mAb
binding result: binds

B11: SC16.79 (antibody, V domains shown)
VH: EVQLQQSGPELVKPGASVKISCKTSGYTFTEYTMHWVKQSHGKSLEWIGGINPNNGGTSYNQKFKGKATLTVDKSSSTAYMELRSLTSEDSAVYYCARGPAWFAYWGQGTLVTVSA
VL: DIVMSQSPSSLAVSAGEKVTMSCKSSQSLLNSRTRKNYLAWYQQKPGQSPKLLIYWASTRESGVPDRFTGSGSGTDFTLTISSVQAEDLAVYYCKQSYNLYTFGGGTKLKIK
notes: murine mAb
binding result: binds

B12: SC16.80 (antibody, V domains shown)
VH: EVQLQQSGPELVKPGGSKKISCKASGYSFTGYSMNWVKQSHGKNLEWIGLINPYSGGTIYNQKFKGKATLTVDKSSSTAYMELLSLTSEDSAVYYCARRSDYPLVYWGQGTLVTVSA
VL: ETTVTQSPASLSMAIGEKVTIRCITSTDIDDDMIWYQQKPGEPPKLLISEGNTLRPGVPSRFSSSGYGTDFVFTIENMLSEDVADYYCLKRDDLPYTFGGGTQVEIK
notes: murine mAb
binding result: binds

B13: SC16.81 (antibody, V domains shown)
VH: QVQLKESGPVLVAPSQSLSITCTVSGFSLTSYGVHWVRQPPGKGLEWLGVIWAGGSTNYNSALMSRLSISKDNSKSQVFLKMNSLQTDDTAMYYCAKQGNFYAMDYWGQGTSVTVSS
VL: QIVLTQSPAIMSASLGERVTLTCTASSSVSSSYLHWYQQKPGSSPKLWIYSTSNLASGVPTRFSGSGSGTSYSLRISSMEAEDAATYYCHQYNRSPLTFGAGTKLELK
notes: murine mAb
binding result: binds

B14: SC16.84 (antibody, V domains shown)
VH: EVQLQQSGPELVKPGASMKISCKASGYSFTGYTMNWVKQSHGKNLEWIGLINPYNGGTTYNQKFKGKATLTVDKSSSTAYMELLSLTSEDSAVYYCALGYYGNYRRYFDVWGAGTTVTVSS
VL: DIQMTQSPSSLSASLGGKVTITCKASQDIKKYIAWYQHKPGKGPRLLIHYTSTLEPGIPSRFSGSGSGRDYSFSISNLEPEDIATYYCLQYDILWTFGGGTKLEIK
notes: murine mAb
binding result: binds

B15: SC16.88 (antibody, V domains shown)
VH: QVQLQQSGAELARPGASVKLSCKASGYTCTSYWMQWVKQRPGQGLEWIGAIYPGDGDTRYTQKFKGKATLTADKSSSTAYMQLSSLASEDSAVYYCARGRRTEAWFAYWGQGTLVTVSA
VL: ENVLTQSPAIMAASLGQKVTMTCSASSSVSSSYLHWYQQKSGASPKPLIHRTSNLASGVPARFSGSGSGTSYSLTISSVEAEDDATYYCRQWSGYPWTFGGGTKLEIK
notes: murine mAb
binding result: binds

B16: SC16.8 (antibody, V domains shown)
VH: QAQLQQSGAELVRPGTSVKVSCKASGYAFTNYLIEWVKQRPGQGLEWIGVINPGTGGTNYNENFKGKATLTADKSSSTAYMQLSSLTSDDSAVYFCARSPYDYHEGAMDYWGQGTSVTVSS
VL: EIQMTQSPSSMSASLGDRITITCQATQDIVKNLNWYQQKPGKPPSFLIYYAIELAEGVPSRFSGSGSGSDYSLTISNLESEDFADYYCLQFYEFPFTFGAGTKLELK
notes: murine mAb
binding result: binds

B17: SC16.101 (antibody, V domains shown)
VL: B13 VL with L21M, T61A, G67E, R75T, S78N, N93H, L97F, A101S, L107I
V domain: QVTLKESGPGILQPSQTLSLTCSFSGFSLSTSGMGVGWIRQPSGKGLEWLAHIWWDDVKRYNPALKSRLTISKDASSSQVFLKIASVDTAETATYYCAHILDRAYYFDYWGQGTTLTVTS
notes: murine mAb
binding result: binds

B18: SC16.103 (antibody, V domains shown)
VH: QVTLKESGPGILKPSQTLSLTCSFSGFSLSTSGMGIGWIRQPSGKGLEWLAHIWWDDDKYYNPSLKSQLTISKDSSRNQVFLKITSVDTADTATYYCARRGTAYYFDYWGQGTTLTVSS
VL: DIVLTQSPASLAVSLGQRATISCRASKSVSTSGYSYMHWYQQKPGQPPKLLIYLASNLESGVPARFSGSGSGTDFTLNIHPVEEEDAATYYCQHSRELPLTFGAGTKLELK
notes: murine mAb
binding result: binds

B19: SC16.104 (antibody, V domains shown)
VH: QVQLKESGPDLVQPSQTLSLTCTVSGFSLTFYGVHWVRQPPGKGLEWVGTMGWDDKKYYNSALKSRLSISRDTSKNQVFLKLSSLQTEDTAMYYCTRGGTGFDYWGQGTTLTVSS
VL: QIVLSQSPAILSASPGEKVTMTCRASSSVSYIHWYRQKPGSSPKPWIYATSNLASGVPARFSGSGSGTSYSLTISRVEAEDAATYYCQQWSSNPPTFGAGTKLELK
notes: murine mAb
binding result: binds

B20: SC16.105 (antibody, V domains shown)
VH: QVQLQQPGAELVKPGASVKLSCKASGYTFTSYWMHWVKQRPGQGLEWIGVINPSNGRTNYNEKFKSKATLTVDKSSSTAYMQLSSLTSEDSAVYYCARRRELGTLYAMDYWGQGTSVTVSS
VL: DIVMTQSHKFMSTSVGDRVSITCKASQDVGTAVAWYQQKPGQSPKLLIYWASIRHTGVPDRFTGSGSGTDFTLTISNVQSEDLADYFCQQYSSYPLTFGAGTKLELK
notes: murine mAb
binding result: binds
